Assay results as given in patent US20060235215A1 (published 2006).

T1: O. sativa 14-3-3 Protein Homolog GF14-c, bait fragment aa 1-150 (Oryza sativa, UniProt Q6ZKC0 1-150)
T1 construct: bait; also called OsGF14-c; PN12464
T1 sequence: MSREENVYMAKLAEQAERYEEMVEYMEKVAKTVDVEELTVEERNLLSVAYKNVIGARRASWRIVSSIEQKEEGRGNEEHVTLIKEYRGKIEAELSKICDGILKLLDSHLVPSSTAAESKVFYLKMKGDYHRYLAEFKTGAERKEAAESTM

B1: O. sativa 3-Phosphoshikimate 1-carboxyvinyltransferase (a.k.a. EPSP Synthase), prey clone aa 463-511 (enzyme)
chain: AIDTYDDHRMAMAFSLAACADVPVTIRDPGCTRKTFPNYFDVLSTFVRN
notes: prey; AD fusion; input trait library; also called OsBAB61062; PN22844
B2: Novel Protein 22858, Fragment, similar to Arabidopsis GTP Cyclohydrolase II, prey clone aa 27-154 (other)
chain: DKPTDGFSSIDEAIGALHEGKFVIAVDDESGDNEGDLVMAATLADPESIAFMIRNGSGIISVGMKEEDLTRLMIPMMSPIAEIEDISAAASTVTVDARVGISTGVSAADRAKTIFTLASPDSKPTDLR
notes: prey; AD fusion; input trait library; also called OsPN22858
B3: Novel Protein 22874, Fragment, similar to Arabidopsis Putative Phosphatidylinositol-4-phosphate 5-kinase, prey clone aa 1-88 (other)
chain: GTNPGFRVGEIRLSNRDIYFGTLLGNTPEGSGRYVWSDGCTYDGEWRRGMRHGQGKTMWPSGATYEGEYSGGYIYGEGTYTGSDNIVY
notes: prey; AD fusion; input trait library; also called OsPN22874; rice PI4P5K
B4: O. sativa Fructose-Bisphosphate Aldolase, Chloroplast Precursor, prey clone aa 206-269 (enzyme)
chain: QDNGLVPIVEPEILLDGEHGIDRTFEVAQKVWAETFFYMAENNVMFEGILLKPSMVTPGAECKD
notes: prey; AD fusion; input trait library; also called OsBAA02730; PN22832
B5: O. sativa Ribulose Bisphosphate Carboxylase/Oxygenase Activase, Large Isoform A1, prey clone aa 68-210 (enzyme)
chain: DISDDQQDITRGKGFVDSLFQAPTGDGTHEAVLSSYEYLSQGLRTYDFDNTMGGFYIAPAFMDKLVVHISKNFMTLPNIKVPLILGIWGGKGQGKSFQCELVFAKMGINPIMMSAGELESGNAGEPAKLIRQRYREAADIIKK
notes: prey; AD fusion; input trait library; also called OsRCAA1; PN19842
B6: Novel Protein PN22866, Fragment, Similar to A. thaliana Vacuolar ATP Synthase Subunit C, prey clone aa 95-305 (other)
chain: LLALSDDLVKSNVFIEGVSHKIRRQIEELERAGGVESGALTVDGVPVDTYLTRFVWDEGKYPTMSPLKEIAGSIQSQVSKIEDDMKVRGAEYNNVRSQLNAINRKQTGSLAVRDLSNLVKPEDMVTSEHLVTLLAVVPQYSQKDWLSSYESLDTFVVPRSSKKLYEDNEYALYTVTLFAKVVDNFKVRAREKGFQVRDFEYSSEAQESRKE
notes: prey; AD fusion; input trait library; also called OsPN22866
B7: Hypothetical Protein OsContig3864, Similar to H. vulgare Photosystem I Reaction Center Subunit II, Chloroplast Precursor, prey clone aa 94-203 (other)
chain: VITWTSPKEQVFEMPTGGAAIMREGPNLLKLARKEQCLALGTRLRSKYKINYQFYRVFPNGEVQYLHPKDGVYPEKVNAGRQGVGQNFRSIGKNVSPIEVKFTGKNVFDI
notes: prey; AD fusion; input trait library; also called OsPN23061
B8: OsContig4331, O. sativa Putative 33 kDa Oxygen-Evolving Protein of Photosystem II, prey clone aa 193-333 (other)
chain: DGIDYAAVTVQLPGGERVPFLFTIKNLVATGKPESFGGPFLVPSYRGSSFLDPKGRGGSTGYDNAVALPAGGRGDEEELAKENVKNASSSTGNITLSVTKSKPETGEVIGVFESVQPSDTDLGAKVPKDVKIQGVWYAQLE
notes: prey; AD fusion; input trait library; also called OsPN23059
B9: OsContig4331, O. sativa Putative 33 kDa Oxygen-Evolving Protein of Photosystem II, prey clone aa 90-169 (other)
chain: PRRLTFDEIQSKTYMEVKGTGTANQCPTVEGGVDSFAFKAGKYNMKKFCLEPTSFTVKAEGVAKNAPPEFQKTKLMTRLT
notes: as for B8
B10: O. sativa Photosystem II 10 kDa Polypeptide, prey clone aa 82-126 (other)
chain: SPEEWSPTGDTYVGGTTGLLIWAVTLAGLLGGGALLVYNTSALAG
notes: prey; AD fusion; input trait library; also called OsAAB46718; PN22840
B11: Novel Protein PN29982, prey clone aa 201-300 (other)
chain: SPVVDNADVTETKPQTELPVHVMCAEWSSQKRLKKVQLETLERVYSRTKRPTNTMISSIVQVTSLPRKTIVKWFEDRREQDGVPDHRVAFKRSLSETIAS
notes: prey; AD fusion; input trait library; also called OsPN29982
B12: Novel Protein PN30846 (putative dynamin homolog), prey clone aa 1-266 (other)
chain: APRRPSTFLNAVALGNVGAGKSAVLNSLIGHPVLPTGENGATRAPIVVDLQRDPGLSSKSIVLQIDSKSQRVSASSLRHSLQDRLSKGASSGSSRGRVEGINLKLRTSTAPPLKLVDLPGIDQRAVDDPMINEYAGHNDAILLVVIPAMQAADVASSRALRLAKDIDADGTRTVGVISKVDQAEGDAKTIACVQALLLNKGPKNLPDIEWVALIGQSVAIASAQAAGSENSLETAWNAEAETLRSILTGAPKSKLGRIALVDTIAK
notes: prey; AD fusion; input trait library; also called OsPN30846
B13: Novel Protein PN30974, prey clone aa 38-178 (other)
chain: GGYDHPGLIPGLPDEISLQILARMPRMGYLNAKMVSRSWKAAITGVELYRVRKELGVSEEWLYMLTKSDDGKLVWNAFDPVCGQWQRLPLMPGISHGGECKRGIPGLWLGDLLSAGIRVSDVIRGWLGQRDSLDRLPFCGC
notes: prey; AD fusion; input trait library; also called OsPN30974

The binders below were run against T1, O. sativa 14-3-3 Protein Homolog … (assay: yeast two-hybrid).
B1: binds. B2: binds. B3: binds. B4: binds. B5: binds. B6: binds. B7: binds. B8: binds. B9: binds. B10: binds. B11: binds. B12: binds. B13: binds.
